Experiments:
HeLa Kyoto [1] = assay: solubility in G1/S (NP-40 vs SDS abundance) (log2 ratio); higher = more soluble; details: cell cycle stage: G1/S
HeLa Kyoto [2] = assay: melting temperature (median over replicates), in situ; higher = more thermally stable
HeLa Kyoto [3] = assay: solubility change mitosis vs G1/S (difference of NP-40 vs SDS log2 ratios) (log2 ratio difference); higher = more soluble in mitosis
HeLa Kyoto [4] = assay: thermal stability score vs G1/S (z-score of summed log2 fold changes over temperatures); higher = more thermally stable than in G1/S
[5] = cell cycle stage: early G1 (4.5 h after nocodazole release)
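For melting temperature (median over replicates), in situ in this document: HeLa Kyoto cells synchronized by double thymidine or nocodazole block, proteins quantified by TMT10plex mass spectrometry, three independent biological replicates.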
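For solubility change mitosis vs G1/S (difference of NP-40 vs SDS log2 ratios) in this document: synchronized HeLa Kyoto cells (double thymidine block for G1/S, nocodazole release for mitosis), protein amounts in NP-40 versus SDS lysates quantified by mass spectrometry, three biological replicates.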
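For solubility in G1/S (NP-40 vs SDS abundance) in this document: HeLa Kyoto cells arrested at G1/S by double thymidine block, proteins quantified by TMT10plex mass spectrometry in mild NP-40 versus SDS extracts, three biological replicates.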
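For thermal stability score vs G1/S (z-score of summed log2 fold changes over temperatures) in this document: synchronized HeLa Kyoto cells, proteins quantified by TMT10plex mass spectrometry, three biological replicates, mitosis taken 0.5 h after nocodazole release, G1/S directly after double thymidine block.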

MANVGLQFQASAGDSDPQSRPLLLLGQLHHLHRVPWSHVRGKLQPRVTEELWQAALSTLNPNPTDSCPLYLNYATVAALPCRVSRHNSPSAAHFITRLVRTCLPPGAHRCIVMVCEQPEVFASACALARAFPLFTHRSGASRRLEKKTVTVEFFLVGQDNGPVEVSTLQCLANATDGVRLAARIVDTPCNEMNTDTFLEEINKVGKELGIIPTIIRDEELKTRGFGGIYGVGKAALHPPALAVLSHTPDGATQTIAWVGKGIVYDTGGLSIKGKTTMPGMKRDCGGAAAVLGAFRAAIKQGFKDNLHAVFCLAENSVGPNATRPDDIHLLYSGKTVEINNTDAEGRLVLADGVSYACKDLGADIILDMATLTGAQGIATGKYHAAVLTNSAEWEAACVKAGRKCGDLVHPLVYCPELHFSEFTSAVADMKNSVADRDNSPSSCAGLFIASHIGFDWPGVWVHLDIAAPVHAGERATGFGVALLLALFGRASEDPLLNLVSPLGCEVDVEEGDLGRDSKRRRLV [NPEPL1]
solubility in G1/S (log2) (HeLa Kyoto [1]): 0.106
melting temperature (HeLa Kyoto [2]; cell cycle stage: G1/S): 58.3 °C
melting temperature (HeLa Kyoto [2]; cell cycle stage: mitosis): 58.8 °C
solubility change mitosis (log2) (HeLa Kyoto [3]): -0.0373
thermal stability score (HeLa Kyoto [4]; [5]): -4.2
thermal stability score (HeLa Kyoto [4]; cell cycle stage: mitosis): -3.53

MAPGQLALFSVSDKTGLVEFARNLTALGLNLVASGGTAKALRDAGLAVRDVSELTGFPEMLGGRVKTLHPAVHAGILARNIPEDNADMARLDFNLIRVVACNLYPFVKTVASPGVTVEEAVEQIDIGGVTLLRAAAKNHARVTVVCEPEDYVVVSTEMQSSESKDTSLETRRQLALKAFTHTAQYDEAISDYFRKQYSKGVSQMPLRYGMNPHQTPAQLYTLQPKLPITVLNGAPGFINLCDALNAWQLVKELKEALGIPAAASFKHVSPAGAAVGIPLSEDEAKVCMVYDLYKTLTPISAAYARARGADRMSSFGDFVALSDVCDVPTAKIISREVSDGIIAPGYEEEALTILSKKKNGNYCVLQMDQSYKPDENEVRTLFGLHLSQKRNNGVVDKSLFSNVVTKNKDLPESALRDLIVATIAVKYTQSNSVCYAKNGQVIGIGAGQQSRIHCTRLAGDKANYWWLRHHPQVLSMKFKTGVKRAEISNAIDQYVTGTIGEDEDLIKWKALFEEVPELLTEAEKKEWVEKLTEVSISSDAFFPFRDNVDRAKRSGVAYIAAPSGSAADKVVIEACDELGIILAHTNLRLFHH [ATIC]
solubility in G1/S (log2) (HeLa Kyoto [1]): 0.0708
melting temperature (HeLa Kyoto [2]; cell cycle stage: G1/S): 54.4 °C
melting temperature (HeLa Kyoto [2]; cell cycle stage: mitosis): 54.4 °C
solubility change mitosis (log2) (HeLa Kyoto [3]): -0.093
thermal stability score (HeLa Kyoto [4]; [5]): -0.0275
thermal stability score (HeLa Kyoto [4]; cell cycle stage: mitosis): 1.16

MAPGVARGPTPYWRLRLGGAALLLLLIPVAAAQEPPGAACSQNTNKTCEECLKNVSCLWCNTNKACLDYPVTSVLPPASLCKLSSARWGVCWVNFEALIITMSVVGGTLLLGIAICCCCCCRRKRSRKPDRSEEKAMREREERRIRQEERRAEMKTRHDEIRKKYGLFKEENPYARFENN [PTTG1IP]
solubility in G1/S (log2) (HeLa Kyoto [1]): -0.362
melting temperature (HeLa Kyoto [2]; cell cycle stage: G1/S): 56.3 °C
solubility change mitosis (log2) (HeLa Kyoto [3]): -0.143
thermal stability score (HeLa Kyoto [4]; [5]): -5.97
thermal stability score (HeLa Kyoto [4]; cell cycle stage: mitosis): -6.48

MAPKGSSKQQSEEDLLLQDFSRNLSAKSSALFFGNAFIVSAIPIWLYWRIWHMDLIQSAVLYSVMTLVSTYLVAFAYKNVKFVLKHKVAQKREDAVSKEVTRKLSEADNRKMSRKEKDERILWKKNEVADYEATTFSIFYNNTLFLVVVIVASFFILKNFNPTVNYILSISASSGLIALLSTGSK [SSR3]
solubility in G1/S (log2) (HeLa Kyoto [1]): -0.131
melting temperature (HeLa Kyoto [2]; cell cycle stage: G1/S): 57.8 °C
melting temperature (HeLa Kyoto [2]; cell cycle stage: mitosis): 57.2 °C
solubility change mitosis (log2) (HeLa Kyoto [3]): 0.126
thermal stability score (HeLa Kyoto [4]; [5]): 1.59
thermal stability score (HeLa Kyoto [4]; cell cycle stage: mitosis): -0.0489

MAPLDLDKYVEIARLCKYLPENDLKRLCDYVCDLLLEESNVQPVSTPVTVCGDIHGQFYDLCELFRTGGQVPDTNYIFMGDFVDRGYYSLETFTYLLALKAKWPDRITLLRGNHESRQITQVYGFYDECQTKYGNANAWRYCTKVFDMLTVAALIDEQILCVHGGLSPDIKTLDQIRTIERNQEIPHKGAFCDLVWSDPEDVDTWAISPRGAGWLFGAKVTNEFVHINNLKLICRAHQLVHEGYKFMFDEKLVTVWSAPNYCYRCGNIASIMVFKDVNTREPKLFRAVPDSERVIPPRTTTPYFL [PPP6C]
solubility in G1/S (log2) (HeLa Kyoto [1]): -0.00442
melting temperature (HeLa Kyoto [2]; cell cycle stage: G1/S): 53.7 °C
melting temperature (HeLa Kyoto [2]; cell cycle stage: mitosis): 54.1 °C
solubility change mitosis (log2) (HeLa Kyoto [3]): -0.154
thermal stability score (HeLa Kyoto [4]; [5]): -1.68
thermal stability score (HeLa Kyoto [4]; cell cycle stage: mitosis): -2.31

Reference: the supplement of paper PMC5998384
